From patent publication US20190134153A1, “IMMUNOMODULATORY EFFECT OF INHALED KINASE INHIBITOR PEPTIDES IN LUNG” (MOERAE MATRIX, INC., priority 2017, published 2019)

Tests used:
Experiment in all cases: Kinase Profiling Assay
Format in all cases: biochemical
Conditions in all cases: 100 μM
[1] = target: T1, PKCζ(h) (Homo sapiens, UniProt Q05513)
T1 sequence (Q05513 1-592): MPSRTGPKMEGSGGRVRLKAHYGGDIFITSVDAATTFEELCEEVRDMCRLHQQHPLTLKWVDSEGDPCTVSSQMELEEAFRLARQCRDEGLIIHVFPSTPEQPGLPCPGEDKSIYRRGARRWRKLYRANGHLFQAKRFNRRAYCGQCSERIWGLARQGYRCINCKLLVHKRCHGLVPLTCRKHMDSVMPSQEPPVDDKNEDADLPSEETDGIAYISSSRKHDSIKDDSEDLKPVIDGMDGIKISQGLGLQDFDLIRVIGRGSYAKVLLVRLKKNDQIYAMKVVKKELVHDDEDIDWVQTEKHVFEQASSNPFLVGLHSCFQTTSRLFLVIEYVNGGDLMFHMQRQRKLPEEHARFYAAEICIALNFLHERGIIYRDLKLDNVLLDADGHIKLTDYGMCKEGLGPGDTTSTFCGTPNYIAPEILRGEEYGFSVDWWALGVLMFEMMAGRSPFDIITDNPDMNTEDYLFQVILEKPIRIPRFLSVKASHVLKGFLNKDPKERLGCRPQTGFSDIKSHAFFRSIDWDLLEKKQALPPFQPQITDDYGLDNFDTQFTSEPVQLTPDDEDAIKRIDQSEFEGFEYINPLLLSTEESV

[2] = target: PKCγ(h) (Homo sapiens, UniProt P05129)
[3] = target: MARK1(h) (Homo sapiens, UniProt Q9P0L2)
[4] = target: HIPK2(h) (Homo sapiens, UniProt Q9H2X6)
[5] = target: CSK(h) (Homo sapiens, UniProt P41240)
[6] = target: Met(Y1248D)(h) (Homo sapiens, UniProt P08581, Y1230D)
[7] = target: cKit(D816H)(h) (Homo sapiens, UniProt P10721, D816H)
[8] = target: T2, GCK(h) (Homo sapiens, UniProt Q12851)
T2 sequence (Q12851 1-820): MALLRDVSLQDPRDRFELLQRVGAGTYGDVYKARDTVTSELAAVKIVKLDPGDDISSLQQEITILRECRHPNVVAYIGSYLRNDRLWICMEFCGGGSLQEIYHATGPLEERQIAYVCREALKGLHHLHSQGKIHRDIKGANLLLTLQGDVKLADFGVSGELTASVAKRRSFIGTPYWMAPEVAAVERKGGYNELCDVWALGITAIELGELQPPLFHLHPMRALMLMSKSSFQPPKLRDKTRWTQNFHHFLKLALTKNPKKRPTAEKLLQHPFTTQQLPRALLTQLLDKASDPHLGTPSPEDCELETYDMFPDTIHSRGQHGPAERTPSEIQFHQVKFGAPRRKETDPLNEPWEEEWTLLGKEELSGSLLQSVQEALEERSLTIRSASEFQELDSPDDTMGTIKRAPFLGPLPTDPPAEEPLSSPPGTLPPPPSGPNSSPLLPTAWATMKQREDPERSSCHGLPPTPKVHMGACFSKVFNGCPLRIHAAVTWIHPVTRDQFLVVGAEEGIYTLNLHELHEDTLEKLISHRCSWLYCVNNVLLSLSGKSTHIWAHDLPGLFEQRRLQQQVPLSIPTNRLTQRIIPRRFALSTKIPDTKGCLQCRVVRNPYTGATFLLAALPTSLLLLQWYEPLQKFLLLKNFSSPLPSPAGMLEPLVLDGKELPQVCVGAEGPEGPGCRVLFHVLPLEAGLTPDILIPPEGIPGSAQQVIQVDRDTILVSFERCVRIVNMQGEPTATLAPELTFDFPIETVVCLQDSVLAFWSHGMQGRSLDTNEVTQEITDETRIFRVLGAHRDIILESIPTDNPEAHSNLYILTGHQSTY

[9] = target: FAK(h) (Homo sapiens, UniProt Q05397)
[10] = target: T3, PKCε(h) (Homo sapiens, UniProt Q02156)
T3 sequence (Q02156 1-737): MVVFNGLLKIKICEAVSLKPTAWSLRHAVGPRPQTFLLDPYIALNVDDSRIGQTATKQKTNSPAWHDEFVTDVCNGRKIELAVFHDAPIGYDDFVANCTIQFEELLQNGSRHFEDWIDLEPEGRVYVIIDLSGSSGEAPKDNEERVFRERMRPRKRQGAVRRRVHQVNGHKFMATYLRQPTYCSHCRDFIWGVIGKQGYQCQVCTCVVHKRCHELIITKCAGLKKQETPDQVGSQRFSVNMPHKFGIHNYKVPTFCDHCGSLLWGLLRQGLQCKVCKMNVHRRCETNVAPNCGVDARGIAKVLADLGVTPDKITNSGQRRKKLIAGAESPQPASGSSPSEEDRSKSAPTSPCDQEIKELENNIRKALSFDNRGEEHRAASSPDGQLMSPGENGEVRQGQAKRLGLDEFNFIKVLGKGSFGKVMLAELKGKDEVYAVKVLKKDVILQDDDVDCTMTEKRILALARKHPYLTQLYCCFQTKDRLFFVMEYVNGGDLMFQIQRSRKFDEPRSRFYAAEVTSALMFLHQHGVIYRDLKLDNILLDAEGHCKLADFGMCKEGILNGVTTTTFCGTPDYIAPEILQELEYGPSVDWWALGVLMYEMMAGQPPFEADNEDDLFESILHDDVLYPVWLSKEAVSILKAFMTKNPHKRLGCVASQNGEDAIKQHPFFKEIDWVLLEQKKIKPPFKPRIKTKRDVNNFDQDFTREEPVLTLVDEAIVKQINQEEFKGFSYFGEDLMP

Sequence of CSK(h) (P41240 whole entry): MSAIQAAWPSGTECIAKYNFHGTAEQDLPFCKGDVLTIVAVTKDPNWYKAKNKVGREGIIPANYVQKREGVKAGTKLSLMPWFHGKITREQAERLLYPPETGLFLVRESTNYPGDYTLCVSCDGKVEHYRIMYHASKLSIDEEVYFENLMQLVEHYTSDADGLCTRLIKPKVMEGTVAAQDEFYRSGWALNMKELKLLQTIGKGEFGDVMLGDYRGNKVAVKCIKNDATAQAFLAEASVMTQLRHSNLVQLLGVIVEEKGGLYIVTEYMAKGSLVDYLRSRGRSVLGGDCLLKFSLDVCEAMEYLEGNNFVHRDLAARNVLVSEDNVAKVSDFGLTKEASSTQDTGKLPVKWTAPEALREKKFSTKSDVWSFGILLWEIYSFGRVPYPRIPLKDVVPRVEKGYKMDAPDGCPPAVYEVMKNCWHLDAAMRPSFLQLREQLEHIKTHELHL
Sequence of HIPK2(h) (Q9H2X6 whole entry): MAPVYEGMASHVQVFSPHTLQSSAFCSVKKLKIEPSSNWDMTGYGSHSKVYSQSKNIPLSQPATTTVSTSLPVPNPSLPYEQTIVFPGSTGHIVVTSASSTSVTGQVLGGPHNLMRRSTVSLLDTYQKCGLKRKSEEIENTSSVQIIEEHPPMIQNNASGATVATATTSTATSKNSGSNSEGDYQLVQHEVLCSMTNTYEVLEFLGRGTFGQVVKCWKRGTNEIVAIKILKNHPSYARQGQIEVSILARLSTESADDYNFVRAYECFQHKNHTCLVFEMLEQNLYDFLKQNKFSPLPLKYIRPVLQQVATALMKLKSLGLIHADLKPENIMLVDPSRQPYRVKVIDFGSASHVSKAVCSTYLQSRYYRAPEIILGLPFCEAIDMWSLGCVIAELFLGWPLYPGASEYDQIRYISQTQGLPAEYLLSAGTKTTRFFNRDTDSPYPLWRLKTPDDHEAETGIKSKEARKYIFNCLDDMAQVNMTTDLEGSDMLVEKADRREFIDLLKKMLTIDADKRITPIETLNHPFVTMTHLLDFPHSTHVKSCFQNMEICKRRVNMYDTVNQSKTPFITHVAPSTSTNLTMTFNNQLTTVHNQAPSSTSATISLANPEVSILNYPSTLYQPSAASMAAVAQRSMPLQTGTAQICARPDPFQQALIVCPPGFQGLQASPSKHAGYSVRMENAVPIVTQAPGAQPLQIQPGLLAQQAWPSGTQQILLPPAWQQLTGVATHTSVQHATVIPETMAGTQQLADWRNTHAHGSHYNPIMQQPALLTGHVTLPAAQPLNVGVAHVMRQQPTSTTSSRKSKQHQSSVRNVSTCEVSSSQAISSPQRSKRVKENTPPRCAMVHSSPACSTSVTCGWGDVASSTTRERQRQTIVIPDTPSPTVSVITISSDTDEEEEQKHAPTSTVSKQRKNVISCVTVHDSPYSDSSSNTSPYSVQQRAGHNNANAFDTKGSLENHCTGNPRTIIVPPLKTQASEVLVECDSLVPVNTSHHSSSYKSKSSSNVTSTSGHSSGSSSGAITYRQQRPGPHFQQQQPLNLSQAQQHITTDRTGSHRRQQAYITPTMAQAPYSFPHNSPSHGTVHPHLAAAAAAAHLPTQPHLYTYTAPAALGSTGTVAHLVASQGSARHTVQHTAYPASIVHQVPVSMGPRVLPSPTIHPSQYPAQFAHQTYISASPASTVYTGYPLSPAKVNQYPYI
Sequence of FAK(h) (Q05397 whole entry): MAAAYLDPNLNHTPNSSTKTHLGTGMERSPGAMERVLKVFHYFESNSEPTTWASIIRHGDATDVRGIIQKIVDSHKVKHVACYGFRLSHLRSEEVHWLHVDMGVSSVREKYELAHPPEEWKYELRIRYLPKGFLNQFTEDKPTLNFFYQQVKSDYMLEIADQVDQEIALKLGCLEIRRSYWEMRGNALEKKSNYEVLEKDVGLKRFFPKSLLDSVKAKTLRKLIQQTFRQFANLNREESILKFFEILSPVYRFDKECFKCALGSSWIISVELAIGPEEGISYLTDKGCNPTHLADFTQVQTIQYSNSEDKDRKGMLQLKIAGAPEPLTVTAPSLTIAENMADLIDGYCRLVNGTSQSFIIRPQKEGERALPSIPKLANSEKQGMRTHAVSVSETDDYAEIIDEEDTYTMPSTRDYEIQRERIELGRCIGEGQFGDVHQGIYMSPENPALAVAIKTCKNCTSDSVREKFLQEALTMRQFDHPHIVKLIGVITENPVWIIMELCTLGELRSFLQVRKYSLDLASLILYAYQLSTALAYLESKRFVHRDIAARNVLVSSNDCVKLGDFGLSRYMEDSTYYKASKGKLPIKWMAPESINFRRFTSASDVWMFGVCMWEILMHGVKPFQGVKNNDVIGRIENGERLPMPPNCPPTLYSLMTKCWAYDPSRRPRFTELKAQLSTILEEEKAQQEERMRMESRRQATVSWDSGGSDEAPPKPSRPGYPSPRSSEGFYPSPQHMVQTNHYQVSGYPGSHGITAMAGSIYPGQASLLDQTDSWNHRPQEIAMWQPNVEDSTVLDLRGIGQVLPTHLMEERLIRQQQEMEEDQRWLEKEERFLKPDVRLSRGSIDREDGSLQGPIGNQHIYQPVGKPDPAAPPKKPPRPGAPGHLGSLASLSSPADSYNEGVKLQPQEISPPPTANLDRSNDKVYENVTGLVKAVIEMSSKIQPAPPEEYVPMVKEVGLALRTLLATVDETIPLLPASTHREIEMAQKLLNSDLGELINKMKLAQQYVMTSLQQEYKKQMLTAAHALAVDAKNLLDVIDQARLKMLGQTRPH
Sequence of MARK1(h) (Q9P0L2 whole entry): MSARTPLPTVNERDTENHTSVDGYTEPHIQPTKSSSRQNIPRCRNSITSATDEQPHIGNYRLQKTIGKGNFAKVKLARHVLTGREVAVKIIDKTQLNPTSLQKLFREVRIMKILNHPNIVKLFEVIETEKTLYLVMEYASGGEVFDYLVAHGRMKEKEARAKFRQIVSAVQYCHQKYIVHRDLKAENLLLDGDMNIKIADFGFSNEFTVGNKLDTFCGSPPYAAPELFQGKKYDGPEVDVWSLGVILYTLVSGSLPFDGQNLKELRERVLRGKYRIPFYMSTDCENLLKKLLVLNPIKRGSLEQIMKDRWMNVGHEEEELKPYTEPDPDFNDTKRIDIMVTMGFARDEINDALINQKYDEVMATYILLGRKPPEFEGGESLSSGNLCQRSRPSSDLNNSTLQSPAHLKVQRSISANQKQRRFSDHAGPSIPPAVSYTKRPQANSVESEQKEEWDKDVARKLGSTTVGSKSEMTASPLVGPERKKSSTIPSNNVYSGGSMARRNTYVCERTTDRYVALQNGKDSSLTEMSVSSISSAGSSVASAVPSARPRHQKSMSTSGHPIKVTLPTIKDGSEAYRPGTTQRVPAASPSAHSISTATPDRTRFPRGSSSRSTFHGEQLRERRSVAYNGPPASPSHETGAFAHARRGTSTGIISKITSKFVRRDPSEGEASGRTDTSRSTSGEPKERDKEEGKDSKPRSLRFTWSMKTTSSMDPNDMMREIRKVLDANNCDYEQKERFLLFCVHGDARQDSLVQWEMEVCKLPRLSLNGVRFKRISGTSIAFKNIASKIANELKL

Sequence | % activity [1] [%] | % activity [2] [%] | % activity [3] [%] | % activity [4] [%] | % activity [5] [%] | % activity [6] [%] | % activity [7] [%] | % activity [8] [%] | % activity [9] [%] | % activity [10] [%]
HRRIKAWLKKIKALARQLGVAA [MMI-0500] | 7 | 6 | 110 | 38 | 2 | 218 | 194 | 30 | 94 | 23
YARAAARQARAKALNRQLGVA [MMI-0200] | 98 | 101 | – | – | 33 | 118 | – | 99 | 110 | 98
KAFAKLAARLYRKALARQLGVAA [MMI-0400] | 75 | 79 | 120 | 90 | 16 | 31 | 143 | 66 | 96 | 59
FAKLAARLYRKALARQLGVAA [MMI-0300] | 81 | 89 | 132 | 73 | 49 | – | 126 | 70 | – | 79
